B1: HEEH_KT_rd6_0007 (parent)
chain: SIEEEIKKAEEAKEKGKTFIHGDFVATTEELLDELLKRLRKKL

Variants of B1 are the subject of this data set. The data set can be described thus: folding stability dG (cDNA display proteolysis); higher = more stable. As to conditions: PBS, room temperature.
Turning to SIEEEIKKAERAKEKGKTFIHGDFVATTEELLDELLKRLRKKL, the “folding stability dG” value is 0.941 kcal/mol.
As for SIEEEIKKAECAKEKGKTFIHGDFVATTEELLDELLKRLRKKL, the figure is 1.5 kcal/mol.
SIEEEIKKAEDAKEKGKTFIHGDFVATTEELLDELLKRLRKKL: the “folding stability dG” value came out at 1.27 kcal/mol.
The same measure for SIEEEIKKAEWAKEKGKTFIHGDFVATTEELLDELLKRLRKKL: 1.2 kcal/mol; for SIEEEIKKAEPAKEKGKTFIHGDFVATTEELLDELLKRLRKKL: 0.576 kcal/mol.
The same measure for SIEEEIKKAEQAKEKGKTFIHGDFVATTEELLDELLKRLRKKL: 1.06 kcal/mol; for SIEEEIKKAEIAKEKGKTFIHGDFVATTEELLDELLKRLRKKL: 1.03 kcal/mol; for SIEEEIKKAENAKEKGKTFIHGDFVATTEELLDELLKRLRKKL: 0.868 kcal/mol.
As for SIEEEIKKAESAKEKGKTFIHGDFVATTEELLDELLKRLRKKL, the figure is 0.928 kcal/mol.
For SIEEEIKKAEYAKEKGKTFIHGDFVATTEELLDELLKRLRKKL, the “folding stability dG” value was 1.17 kcal/mol.
The same measure for SIEEEIKKAEVAKEKGKTFIHGDFVATTEELLDELLKRLRKKL: 0.953 kcal/mol.
As for SIEEEIKKAEGAKEKGKTFIHGDFVATTEELLDELLKRLRKKL, the figure is 0.705 kcal/mol; as for SIEEEIKKAEKAKEKGKTFIHGDFVATTEELLDELLKRLRKKL, 0.817 kcal/mol; as for SIEEEIKKAEFAKEKGKTFIHGDFVATTEELLDELLKRLRKKL, 0.946 kcal/mol.
As for SIEEEIKKAELAKEKGKTFIHGDFVATTEELLDELLKRLRKKL, the figure is 1.1 kcal/mol; as for SIEEEIKKAETAKEKGKTFIHGDFVATTEELLDELLKRLRKKL, 1.04 kcal/mol; as for SIEEEIKKAEAAKEKGKTFIHGDFVATTEELLDELLKRLRKKL, 1.16 kcal/mol.
For SIEEEIKKAEMAKEKGKTFIHGDFVATTEELLDELLKRLRKKL, the “folding stability dG” value came out at 1.05 kcal/mol.
The same measure for SIEEEIKKAEHAKEKGKTFIHGDFVATTEELLDELLKRLRKKL: 0.939 kcal/mol; for SIEEEIKKSEEAKEKGKTFIHGDFVATTEELLDELLKRLRKKL: 0.634 kcal/mol.
The same measure for SIEEEIKKWEEAKEKGKTFIHGDFVATTEELLDELLKRLRKKL: 0.879 kcal/mol.
Regarding SIEEEIKKTEEAKEKGKTFIHGDFVATTEELLDELLKRLRKKL, the “folding stability dG” value was 0.679 kcal/mol.
Take SIEEEIKKPEEAKEKGKTFIHGDFVATTEELLDELLKRLRKKL: the “folding stability dG” value amounted to 0.556 kcal/mol.
For the variant SIEEEIKKVEEAKEKGKTFIHGDFVATTEELLDELLKRLRKKL, the “folding stability dG” value worked out at 1.68 kcal/mol.
SIEEEIKKMEEAKEKGKTFIHGDFVATTEELLDELLKRLRKKL: the “folding stability dG” value turned out to be 0.926 kcal/mol.
As for SIEEEIKKQEEAKEKGKTFIHGDFVATTEELLDELLKRLRKKL, the figure is 0.596 kcal/mol; as for SIEEEIKKREEAKEKGKTFIHGDFVATTEELLDELLKRLRKKL, 0.739 kcal/mol; as for SIEEEIKKYEEAKEKGKTFIHGDFVATTEELLDELLKRLRKKL, 0.662 kcal/mol.
As for SIEEEIKKNEEAKEKGKTFIHGDFVATTEELLDELLKRLRKKL, the figure is 0.608 kcal/mol; as for SIEEEIKKAEEHKEKGKTFIHGDFVATTEELLDELLKRLRKKL, 0.753 kcal/mol.
For the variant SIEEEIKKAEECKEKGKTFIHGDFVATTEELLDELLKRLRKKL, the “folding stability dG” value came to 1.78 kcal/mol.
For the variant SIEEEIKKAEENKEKGKTFIHGDFVATTEELLDELLKRLRKKL, the “folding stability dG” value worked out at 0.603 kcal/mol.
As for SIEEEIKKAEELKEKGKTFIHGDFVATTEELLDELLKRLRKKL, the figure is 0.688 kcal/mol.
As to SIEEEIKKAEEFKEKGKTFIHGDFVATTEELLDELLKRLRKKL, the “folding stability dG” value came out at 0.689 kcal/mol.
As for SIEEEIKKAEEIKEKGKTFIHGDFVATTEELLDELLKRLRKKL, the figure is 0.771 kcal/mol; as for SIEEEIKKAEEEKEKGKTFIHGDFVATTEELLDELLKRLRKKL, 0.703 kcal/mol.
SIEEEIKKAEEKKEKGKTFIHGDFVATTEELLDELLKRLRKKL: the “folding stability dG” value is 0.526 kcal/mol.
The same measure for SIEEEIKKAEEDKEKGKTFIHGDFVATTEELLDELLKRLRKKL: 0.737 kcal/mol; for SIEEEIKKAEEMKEKGKTFIHGDFVATTEELLDELLKRLRKKL: 0.749 kcal/mol.
The same measure for SIEEEIKKAEEGKEKGKTFIHGDFVATTEELLDELLKRLRKKL: 0.482 kcal/mol.
The same measure for SIEEEIKKADEAKEKGKTFIHGDFVATTEELLDELLKRLRKKL: 0.699 kcal/mol.
For the variant SIEEEIKKAREAKEKGKTFIHGDFVATTEELLDELLKRLRKKL, the “folding stability dG” value amounted to 1.02 kcal/mol.
The same measure for SIEEEIKKAPEAKEKGKTFIHGDFVATTEELLDELLKRLRKKL: 0.607 kcal/mol; for SIEEEIKKAYEAKEKGKTFIHGDFVATTEELLDELLKRLRKKL: 1 kcal/mol.
As for SIEEEIKKAWEAKEKGKTFIHGDFVATTEELLDELLKRLRKKL, the figure is 1.06 kcal/mol; as for SIEEEIKKAHEAKEKGKTFIHGDFVATTEELLDELLKRLRKKL, 0.9 kcal/mol.
The same measure for SIEEEIKKAFEAKEKGKTFIHGDFVATTEELLDELLKRLRKKL: 1.07 kcal/mol; for SIEEEIKKACEAKEKGKTFIHGDFVATTEELLDELLKRLRKKL: 1.49 kcal/mol; for SIEEEIKKAGEAKEKGKTFIHGDFVATTEELLDELLKRLRKKL: 0.706 kcal/mol.
Consider SIEEEIKKAAEAKEKGKTFIHGDFVATTEELLDELLKRLRKKL, for which the “folding stability dG” value worked out at 0.805 kcal/mol.
As to SIEEEIKKAIEAKEKGKTFIHGDFVATTEELLDELLKRLRKKL, the “folding stability dG” value was found to be 1.32 kcal/mol.
Regarding SIEEEIKKANEAKEKGKTFIHGDFVATTEELLDELLKRLRKKL, the “folding stability dG” value came to 0.992 kcal/mol.
For the variant SIEEEIKKAVEAKEKGKTFIHGDFVATTEELLDELLKRLRKKL, the “folding stability dG” value came out at 1.17 kcal/mol.
As for SIEEEIKKAMEAKEKGKTFIHGDFVATTEELLDELLKRLRKKL, the figure is 1.44 kcal/mol; as for SIEEEIKKATEAKEKGKTFIHGDFVATTEELLDELLKRLRKKL, 1.06 kcal/mol; as for SIEEEIKKAQEAKEKGKTFIHGDFVATTEELLDELLKRLRKKL, 1.2 kcal/mol.
The same measure for SIEEEIKKALEAKEKGKTFIHGDFVATTEELLDELLKRLRKKL: 1.58 kcal/mol.
As for SIEEEIKKASEAKEKGKTFIHGDFVATTEELLDELLKRLRKKL, the figure is 0.844 kcal/mol.
Consider SIEEEIKKAKEAKEKGKTFIHGDFVATTEELLDELLKRLRKKL, for which the “folding stability dG” value was determined as 1.04 kcal/mol.

The record behind these values is the MegaScale stability set (Tsuboyama et al. 2023).
